Laboratory results from US20240092889A1 (Chugai, published 2024).

T1: recombinant human C1r2s2 tetramer (human, UniProt P09871 16-688; P00736 18-705)
T1 construct: C1s and C1r co-expressed in HEK293/FreeStyle 293-F and purified from conditioned medium
T1 chain 1: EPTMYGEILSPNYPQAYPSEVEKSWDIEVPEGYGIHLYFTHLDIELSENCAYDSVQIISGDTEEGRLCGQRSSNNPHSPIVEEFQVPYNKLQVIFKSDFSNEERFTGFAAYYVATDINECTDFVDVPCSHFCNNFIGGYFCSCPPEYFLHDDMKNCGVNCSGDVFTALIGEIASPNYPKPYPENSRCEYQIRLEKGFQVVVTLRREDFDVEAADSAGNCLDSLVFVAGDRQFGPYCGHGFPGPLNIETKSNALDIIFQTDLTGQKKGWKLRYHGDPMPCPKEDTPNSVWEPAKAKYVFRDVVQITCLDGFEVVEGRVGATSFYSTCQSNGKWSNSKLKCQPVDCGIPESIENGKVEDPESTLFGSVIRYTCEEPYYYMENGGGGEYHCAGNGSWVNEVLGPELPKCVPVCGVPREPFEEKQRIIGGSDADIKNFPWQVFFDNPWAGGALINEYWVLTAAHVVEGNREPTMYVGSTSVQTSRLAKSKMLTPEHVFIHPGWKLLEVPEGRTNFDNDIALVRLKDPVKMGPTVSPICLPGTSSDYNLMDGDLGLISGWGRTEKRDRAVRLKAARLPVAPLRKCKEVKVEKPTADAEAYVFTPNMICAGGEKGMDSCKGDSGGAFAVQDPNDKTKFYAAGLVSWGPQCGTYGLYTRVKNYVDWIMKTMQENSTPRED
T1 chain 2: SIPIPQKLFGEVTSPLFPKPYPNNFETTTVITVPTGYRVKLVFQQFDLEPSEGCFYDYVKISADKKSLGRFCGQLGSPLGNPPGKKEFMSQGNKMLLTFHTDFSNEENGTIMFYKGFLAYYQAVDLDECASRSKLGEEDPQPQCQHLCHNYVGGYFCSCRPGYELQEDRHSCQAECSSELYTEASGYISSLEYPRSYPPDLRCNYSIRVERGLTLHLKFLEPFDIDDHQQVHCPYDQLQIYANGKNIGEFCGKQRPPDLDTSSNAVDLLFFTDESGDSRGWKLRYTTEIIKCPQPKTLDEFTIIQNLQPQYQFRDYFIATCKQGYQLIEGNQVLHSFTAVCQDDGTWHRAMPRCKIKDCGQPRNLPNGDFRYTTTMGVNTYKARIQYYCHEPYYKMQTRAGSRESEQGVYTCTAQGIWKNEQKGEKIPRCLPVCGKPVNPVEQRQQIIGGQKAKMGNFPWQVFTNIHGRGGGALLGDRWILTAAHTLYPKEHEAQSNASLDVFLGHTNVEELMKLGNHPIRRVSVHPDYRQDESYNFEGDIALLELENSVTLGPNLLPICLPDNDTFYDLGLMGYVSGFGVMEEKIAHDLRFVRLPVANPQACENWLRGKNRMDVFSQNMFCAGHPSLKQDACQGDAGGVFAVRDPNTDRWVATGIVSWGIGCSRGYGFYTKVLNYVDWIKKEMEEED

B1: AL0466 (antibody, human IgG1, kappa, V domains shown)
VH: QVQLVESGGGVVQPGRSLRLSCAASGFTFSAYAMNWIRQPPGKGLEWIGLIYGSGSTFYASWAKGRVTISVDTSKNQFSLKLSSVTAADTAVYYCARGRSVNYNSDFHLWGQGTLVTVSS
VL: DIQMTQSPSSLSASVGDRVTITCQASQSLHDKKNLAWYQQKPGQPPKLLIYGASTLESGVPSRFSGSGSGTDFTLTISSLQPEDFATYYCQGEFSTSSADCNTFGQGTKVEIKR
notes: COS0637temp with VL C94T (Kabat), already in the VL entry
B2: AL0549 (antibody, human IgG1, kappa, V domains shown)
VH: QVQLVESGGGVVQPGRSLRLSCAASGFTFSAYAMNWIRQPPGKGLEWIGLIYGSGSTFYASWAKGRVTISVDTSKNQFSLKLSSVTAADTAVYYCARGRSVNYNSDFHLWGQGTLVTVSS
VL: DIQMTQSPSSLSASVGDRVTITCQASQSLHDKKNLAWYQQKPGQPPKLLIYGASTLESGVPSRFSGSGSGTDFTLTISSLQPEDFATYYCQGEFSCSSADKNTFGQGTKVEIKR
notes: COS0637temp with VL C95dK (Kabat), already in the VL entry
B3: AL0546 (antibody, human IgG1, kappa, V domains shown)
VH: QVQLVESGGGVVQPGRSLRLSCAASGFTFSAYAMNWIRQPPGKGLEWIGLIYGSGSTFYASWAKGRVTISVDTSKNQFSLKLSSVTAADTAVYYCARGRSVNYNSDFHLWGQGTLVTVSS
VL: DIQMTQSPSSLSASVGDRVTITCQASQSLHDKKNLAWYQQKPGQPPKLLIYGASTLESGVPSRFSGSGSGTDFTLTISSLQPEDFATYYCQGEFSCSSADGNTFGQGTKVEIKR
notes: COS0637temp with VL C95dG (Kabat), already in the VL entry
B4: AL0469 (antibody, human IgG1, kappa, V domains shown)
VH: QVQLVESGGGVVQPGRSLRLSCAASGFTFSAYAMNWIRQPPGKGLEWIGLIYGSGSTFYASWAKGRVTISVDTSKNQFSLKLSSVTAADTAVYYCARGRSVNYNSDFHLWGQGTLVTVSS
VL: DIQMTQSPSSLSASVGDRVTITCQASQSLHDKKNLAWYQQKPGQPPKLLIYGASTLESGVPSRFSGSGSGTDFTLTISSLQPEDFATYYCQGEFSYSSADCNTFGQGTKVEIKR
notes: COS0637temp with VL C94Y (Kabat), already in the VL entry
B5: AL0542 (antibody, human IgG1, kappa, V domains shown)
VH: QVQLVESGGGVVQPGRSLRLSCAASGFTFSAYAMNWIRQPPGKGLEWIGLIYGSGSTFYASWAKGRVTISVDTSKNQFSLKLSSVTAADTAVYYCARGRSVNYNSDFHLWGQGTLVTVSS
VL: DIQMTQSPSSLSASVGDRVTITCQASQSLHDKKNLAWYQQKPGQPPKLLIYGASTLESGVPSRFSGSGSGTDFTLTISSLQPEDFATYYCQGEFSCSSADANTFGQGTKVEIKR
notes: COS0637temp with VL C95dA (Kabat), already in the VL entry
B6: AL0547 (antibody, human IgG1, kappa, V domains shown)
VH: QVQLVESGGGVVQPGRSLRLSCAASGFTFSAYAMNWIRQPPGKGLEWIGLIYGSGSTFYASWAKGRVTISVDTSKNQFSLKLSSVTAADTAVYYCARGRSVNYNSDFHLWGQGTLVTVSS
VL: DIQMTQSPSSLSASVGDRVTITCQASQSLHDKKNLAWYQQKPGQPPKLLIYGASTLESGVPSRFSGSGSGTDFTLTISSLQPEDFATYYCQGEFSCSSADHNTFGQGTKVEIKR
notes: COS0637temp with VL C95dH (Kabat), already in the VL entry
B7: AL0467 (antibody, human IgG1, kappa, V domains shown)
VH: QVQLVESGGGVVQPGRSLRLSCAASGFTFSAYAMNWIRQPPGKGLEWIGLIYGSGSTFYASWAKGRVTISVDTSKNQFSLKLSSVTAADTAVYYCARGRSVNYNSDFHLWGQGTLVTVSS
VL: DIQMTQSPSSLSASVGDRVTITCQASQSLHDKKNLAWYQQKPGQPPKLLIYGASTLESGVPSRFSGSGSGTDFTLTISSLQPEDFATYYCQGEFSVSSADCNTFGQGTKVEIKR
notes: COS0637temp with VL C94V (Kabat), already in the VL entry
B8: AL0551 (antibody, human IgG1, kappa, V domains shown)
VH: QVQLVESGGGVVQPGRSLRLSCAASGFTFSAYAMNWIRQPPGKGLEWIGLIYGSGSTFYASWAKGRVTISVDTSKNQFSLKLSSVTAADTAVYYCARGRSVNYNSDFHLWGQGTLVTVSS
VL: DIQMTQSPSSLSASVGDRVTITCQASQSLHDKKNLAWYQQKPGQPPKLLIYGASTLESGVPSRFSGSGSGTDFTLTISSLQPEDFATYYCQGEFSCSSADMNTFGQGTKVEIKR
notes: COS0637temp with VL C95dM (Kabat), already in the VL entry
B9: AL0543 (antibody, human IgG1, kappa, V domains shown)
VH: QVQLVESGGGVVQPGRSLRLSCAASGFTFSAYAMNWIRQPPGKGLEWIGLIYGSGSTFYASWAKGRVTISVDTSKNQFSLKLSSVTAADTAVYYCARGRSVNYNSDFHLWGQGTLVTVSS
VL: DIQMTQSPSSLSASVGDRVTITCQASQSLHDKKNLAWYQQKPGQPPKLLIYGASTLESGVPSRFSGSGSGTDFTLTISSLQPEDFATYYCQGEFSCSSADDNTFGQGTKVEIKR
notes: COS0637temp with VL C95dD (Kabat), already in the VL entry
B10: AL0468 (antibody, human IgG1, kappa, V domains shown)
VH: QVQLVESGGGVVQPGRSLRLSCAASGFTFSAYAMNWIRQPPGKGLEWIGLIYGSGSTFYASWAKGRVTISVDTSKNQFSLKLSSVTAADTAVYYCARGRSVNYNSDFHLWGQGTLVTVSS
VL: DIQMTQSPSSLSASVGDRVTITCQASQSLHDKKNLAWYQQKPGQPPKLLIYGASTLESGVPSRFSGSGSGTDFTLTISSLQPEDFATYYCQGEFSWSSADCNTFGQGTKVEIKR
notes: COS0637temp with VL C94W (Kabat), already in the VL entry
B11: AL0548 (antibody, human IgG1, kappa, V domains shown)
VH: QVQLVESGGGVVQPGRSLRLSCAASGFTFSAYAMNWIRQPPGKGLEWIGLIYGSGSTFYASWAKGRVTISVDTSKNQFSLKLSSVTAADTAVYYCARGRSVNYNSDFHLWGQGTLVTVSS
VL: DIQMTQSPSSLSASVGDRVTITCQASQSLHDKKNLAWYQQKPGQPPKLLIYGASTLESGVPSRFSGSGSGTDFTLTISSLQPEDFATYYCQGEFSCSSADINTFGQGTKVEIKR
notes: COS0637temp with VL C95dI (Kabat), already in the VL entry
B12: AL0550 (antibody, human IgG1, kappa, V domains shown)
VH: QVQLVESGGGVVQPGRSLRLSCAASGFTFSAYAMNWIRQPPGKGLEWIGLIYGSGSTFYASWAKGRVTISVDTSKNQFSLKLSSVTAADTAVYYCARGRSVNYNSDFHLWGQGTLVTVSS
VL: DIQMTQSPSSLSASVGDRVTITCQASQSLHDKKNLAWYQQKPGQPPKLLIYGASTLESGVPSRFSGSGSGTDFTLTISSLQPEDFATYYCQGEFSCSSADLNTFGQGTKVEIKR
notes: COS0637temp with VL C95dL (Kabat), already in the VL entry
B13: AL0545 (antibody, human IgG1, kappa, V domains shown)
VH: QVQLVESGGGVVQPGRSLRLSCAASGFTFSAYAMNWIRQPPGKGLEWIGLIYGSGSTFYASWAKGRVTISVDTSKNQFSLKLSSVTAADTAVYYCARGRSVNYNSDFHLWGQGTLVTVSS
VL: DIQMTQSPSSLSASVGDRVTITCQASQSLHDKKNLAWYQQKPGQPPKLLIYGASTLESGVPSRFSGSGSGTDFTLTISSLQPEDFATYYCQGEFSCSSADFNTFGQGTKVEIKR
notes: COS0637temp with VL C95dF (Kabat), already in the VL entry
B14: AL0544 (antibody, human IgG1, kappa, V domains shown)
VH: QVQLVESGGGVVQPGRSLRLSCAASGFTFSAYAMNWIRQPPGKGLEWIGLIYGSGSTFYASWAKGRVTISVDTSKNQFSLKLSSVTAADTAVYYCARGRSVNYNSDFHLWGQGTLVTVSS
VL: DIQMTQSPSSLSASVGDRVTITCQASQSLHDKKNLAWYQQKPGQPPKLLIYGASTLESGVPSRFSGSGSGTDFTLTISSLQPEDFATYYCQGEFSCSSADENTFGQGTKVEIKR
notes: COS0637temp with VL C95dE (Kabat), already in the VL entry

Molecular target: T1, recombinant human C1r2s2 tetramer
Experiment: SPR (BIACORE), antibody captured by ProL, human C1r2s2 injected at 100 nM, pH 7.4, 37 C
Procedure: Analysis of interaction between antibody variants and the human C1r2s2 prepared as mentioned above was carried out at pH7.4, at 37 degrees C. using BIACORE® T200 instrument (GE Healthcare) or BIACORE® 4000 (GE Healthcare). ProL (BioVision) was immobilized onto a CM4 sensorchip using amine coupling kit (GE Healthcare) according to the recommended settings by GE Healthcare. Antibodies and analytes were diluted into the respective running buffers, ACES pH7.4 (20 mM ACES (N-(2-Acetamido)-2-aminoethanesulfonic acid), 150 mM NaCl, 1.2 mM CaCl2, 1 mg/ml bovine serum albumin (BSA), 1 mg/ml CMD (CM-Dextran sodium salt), 0.05% Tween® 20 (polysorbate 20), 0.005 w/v % NaN3). Each antibody was captured onto the sensor surface by ProL. Antibody capture levels were aimed at 200 resonance units (RU). Then, recombinant human C1r2s2 was injected at concentrations of 25 and 100 nM followed by dissociation at pH7.4. The surface was regenerated using 10 mM Glycine-HCl, pH1.5.

Binding result, no binding (tested: 100 nM):
B1, B2, B3, B4, B5, B6, B7, B8, B9, B10, B11, B12, B13, B14
